Earlier results in article PMC12590814.
Read-outs that look alike come from different tables or passages of the source.

What was measured:
[1] = target: calmodulin (Homo sapiens) (UniProt P0DP23)
[2] = target: calmodulin (Homo sapiens) (UniProt P0DP23); remark: listed apart in the source

| Kd [1] [nM] | Kd [2] [nM] | Substance |
| --- | --- | --- |
| 7.5 | – | PMCA3 (from UniProt Q16720) |
| – | 7.5 | PMCA2 (from UniProt Q01814) |
